One may read the Km as the concentration of substrate that gives half-maximal velocity.

Consider 2 proteins from publication PMC8115037, “Paracoccus denitrificans: a genetically tractable model system for studying respiratory complex I” (Scientific Reports, 2021).

Common to all, as to assay type: biochemical, Paracoccus denitrificans
What all share (conditions): FMN, FeS clusters

Substrate in data set [1]: CCCCCCCCCCC1=C(C)C(=O)C(OC)=C(OC)C1=O
The data set is described as follows: KM, NADH:DQ oxidoreduction by purified soluble enzyme.

Substrate in data set [2]: COC1=C(OC)C(=O)C(CC=C(C)C)=C(C)C1=O
The data set is described as follows: KM, quinone reduction by purified soluble enzyme.

Substrate in data set [3]: COC1=C(OC)C(=O)C(C/C=C(\C)CC/C=C(\C)CC/C=C(\C)CC/C=C(\C)CC/C=C(\C)CC/C=C(\C)CC/C=C(\C)CC/C=C(\C)CC/C=C(\C)CCC=C(C)C)=C(C)C1=O
The experiment in a line: purified protein.

B1: complex I (NADH:ubiquinone oxidoreductase), Pd-CI (Paracoccus denitrificans PD1222) (protein)
chain 1: MDGDIRKNSYDDGSMDALTGEQSIRNFNINFGPQHPAAHGVLRMVLELDGEIVERADPHIGLLHRGTEKLMESRTYLQNLPYLDRLDYVAPMNQEHAWCLAIERLTGTVIPRRASLIRVLYSEIGRILNHLMGVTTGAMDVGALTPPLWGFEAREELMIFYERACGARLHAAYFRPGGVHQDLPPDLLDDIEEWCERFPKLVDDLDTLLTENRIFKQRLVDIGIVTEADALDWGYTGVMVRGSGLAWDLRRSQPYECYDEFDFQIPVGRNGDCYDRYLCRMAEMRESCKIMQQAVQKLRAEPAGDVLARGKLTPPRRAEMKRDMESLIHHFKLYTEGFKVPAGEVYAAVEAPKGEFGVYLVADGTNKPWRAKLRAPGFAHLQSIDWMSRGHMLADVPAIIATLDIVFGEVDR
chain 2: MMTGLNTAGADRDLATAELNRELQDKGFLLTTTEDIINWARNGSLHWMTFGLACCAVEMMQTSMPRYDLERFGTAPRASPRQSDLMIVAGTLTNKMAPALRKVYDQMPEPRYVISMGSCANGGGYYHYSYSVVRGCDRIVPVDIYVPGCPPTAEALLYGILQLQRRIRRTGTLVR
chain 3: MAEFWASPYGFALSMLLQGLAVIAFVMGSLIFMVYGDRKIWAAVQMRRGPNVVGPWGLLQTFADALKYIVKEIVIPAGADKFVYFLAPFLSMMLALFAFVVIPFDEGWVMANINVGILFIFAASSLEVYGVIMGGWASNSKYPFLASLRSAAQMISYEVSLGLIIIGIIISTGSMNLTAIVEAQRGDYGLLNWYWLPHLPMVVLFFVSALAECNRPPFDLVEAESELVAGFMTEYSSTPYLLFMAGEYIAMYLMCALLSLLFFGGWLSPVPFIADGWWWMVIKMWFWFYMFAMVKAIVPRYRYDQLMRIGWKVFLPLSLGWVVLVAILARYEILGGFWARFAVGG
chain 4: MLNDQDRIFTNLYGMGDRSLAGAKKRGHWDGTAAIIQRGRDKIIDEMKASGLRGRGGAGFPTGMKWSFMPKESDGRPSYLVINADESEPATCKDREIMRHDPHTLIEGALIASFAMGAHAAYIYIRGEFIREREALQAAIDECYDAGLLGRNAAGSGWDFDLYLHHGAGAYICGEETALLESLEGKKGMPRMKPPFPAGAGLYGCPTTVNNVESIAVVPTILRRGAEWFASFGRPNNAGVKLFGLTGHVNTPCVVEEAMSIPMRELIEKHGGGIRGGWKNLKAVIPGGASCPVLTAEQCENAIMDYDGMRDVRSSFGTACMIVMDQSTDVVKAIWRLSKFFKHESCGQCTPCREGTGWMMRVMERLVRGDAEVEEIDMLFDVTKQVEGHTICALGDAAAWPIQGLIRNFREEIEDRIKAKRTGRMGAMAAE
notes: intact purified complex I, His6-tag on Nqo5; with multisubunit complex (14 core Nqo subunits plus PdNUMM, PdNUYM, PdN7BM)
As for B1, the figures for the Km in data set [1] and in data set [2] were 169 ± 15 µM and 124 ± 8 µM, respectively.

B2: complex I (NADH:ubiquinone oxidoreductase), Pd-CI (Paracoccus denitrificans PD1222) (protein)
chain 1: MDGDIRKNSYDDGSMDALTGEQSIRNFNINFGPQHPAAHGVLRMVLELDGEIVERADPHIGLLHRGTEKLMESRTYLQNLPYLDRLDYVAPMNQEHAWCLAIERLTGTVIPRRASLIRVLYSEIGRILNHLMGVTTGAMDVGALTPPLWGFEAREELMIFYERACGARLHAAYFRPGGVHQDLPPDLLDDIEEWCERFPKLVDDLDTLLTENRIFKQRLVDIGIVTEADALDWGYTGVMVRGSGLAWDLRRSQPYECYDEFDFQIPVGRNGDCYDRYLCRMAEMRESCKIMQQAVQKLRAEPAGDVLARGKLTPPRRAEMKRDMESLIHHFKLYTEGFKVPAGEVYAAVEAPKGEFGVYLVADGTNKPWRAKLRAPGFAHLQSIDWMSRGHMLADVPAIIATLDIVFGEVDR
chain 2: MMTGLNTAGADRDLATAELNRELQDKGFLLTTTEDIINWARNGSLHWMTFGLACCAVEMMQTSMPRYDLERFGTAPRASPRQSDLMIVAGTLTNKMAPALRKVYDQMPEPRYVISMGSCANGGGYYHYSYSVVRGCDRIVPVDIYVPGCPPTAEALLYGILQLQRRIRRTGTLVR
chain 3: MAEFWASPYGFALSMLLQGLAVIAFVMGSLIFMVYGDRKIWAAVQMRRGPNVVGPWGLLQTFADALKYIVKEIVIPAGADKFVYFLAPFLSMMLALFAFVVIPFDEGWVMANINVGILFIFAASSLEVYGVIMGGWASNSKYPFLASLRSAAQMISYEVSLGLIIIGIIISTGSMNLTAIVEAQRGDYGLLNWYWLPHLPMVVLFFVSALAECNRPPFDLVEAESELVAGFMTEYSSTPYLLFMAGEYIAMYLMCALLSLLFFGGWLSPVPFIADGWWWMVIKMWFWFYMFAMVKAIVPRYRYDQLMRIGWKVFLPLSLGWVVLVAILARYEILGGFWARFAVGG
notes: purified complex I reconstituted in proteoliposomes, His6-tag on Nqo5; with multisubunit complex (14 core Nqo subunits plus PdNUMM, PdNUYM, PdN7BM)
Take B2: the Km in data set [3] turned out to be 1100 ± 200 µM.
